In patent CN113234158A (FUZHOU MAIXIN BIOTECHNOLOGY DEV CO LTD, dated 2021):

Target: T1, TIM3蛋白 (T细胞免疫球蛋白黏液素3) (human, UniProt Q8TDQ0 22-301)
T1 construct: whole, on cells; Endogenous TIM3 in paraffin tissue sections (immunohistochemistry); Species 'human' comes from the abstract; also called T cell immunoglobulin and mucin-3
T1 sequence (looked up): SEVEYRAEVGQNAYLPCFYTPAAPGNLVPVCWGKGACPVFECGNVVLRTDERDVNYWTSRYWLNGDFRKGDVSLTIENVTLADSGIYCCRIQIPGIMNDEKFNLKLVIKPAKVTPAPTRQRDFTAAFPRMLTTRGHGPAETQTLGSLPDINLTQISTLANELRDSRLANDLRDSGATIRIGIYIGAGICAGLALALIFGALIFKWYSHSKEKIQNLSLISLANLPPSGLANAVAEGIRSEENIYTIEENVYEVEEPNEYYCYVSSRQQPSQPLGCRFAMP
Test: immunohistochemistry on tonsil and appendix tissue chips

binding result: binds
B1: 抗TIM3蛋白单克隆抗体 (小鼠杂交瘤细胞株7H2分泌, CGMCC NO 20763) (antibody, V domains shown)
VH: QVQLQESGGDLVKTGGSLKLSCVASGFTFRRYTMSWVRQTPAKRLEWVATIGSGGGDTYYPDTVKGRFTISRDNARSTLFLQMNSLRSEDTARYYCARSSYYYDVDLYYYSMDYWGQGTSVTVSS
VL: DILMTQTPLSLSASLGDRVTISCRASQDIRNCLNWYQQKPDGTVKLLIYYTSTLQSGVPSRFSGSGSGTDYSLTISNLEAEDIATYTCQQYSKIPRTFGGGTTLEIK
notes: also called TIM3(7H2); 本抗体
